According to FireProtDB (doi:10.1021/bi00072a011):
“And” between values parts separate entries of the source, which are not always exact repeats. Equal entries are not always repeated.

Settings: Salmonella typhimurium (strain LT2 / SGSC1412 / ATCC 700720); pH 7.8; 25 °C; Urea; CD; Potassium phosphate 10 mM; transition: 3; whole UniProt chain shown

B1: Tryptophan synthase alpha chain wild type, P00929 (protein)
chain: MERYENLFAQLNDRREGAFVPFVTLGDPGIEQSLKIIDTLIDAGADALELGVPFSDPLADGPTIQNANLRAFAAGVTPAQCFEMLALIREKHPTIPIGLLMYANLVFNNGIDAFYARCEQVGVDSVLVADVPVEESAPFRQAALRHNIAPIFICPPNADDDLLRQVASYGRGYTYLLSRSGVTGAENRGALPLHHLIEKLKEYHAAPALQGFGISSPEQVSAAVRAGAAGAISGSAIVKIIEKNLASPKQMLAELRSFVSAMKAASRA
denaturant m value: 2.7 kcal/mol/M and 1.6 kcal/mol/M
denaturant midpoint (higher = more stable): 2.75 M and 3.63 M
unfolding free energy: 7.4 kcal/mol and 5.8 kcal/mol
